Reference: the Human Domainome abundance scans (Beltran et al. 2025)

B1: Homeobox protein SIX6, residues 134 to 184; numbered along this chain, O95475 (parent)
chain: CFKERTRHLLREWYLQDPYPNPSKKRELAQATGLTPTQVGNWFKNRRQRDR

Variants of: B1
Experiment: abundance fitness (aPCA) (normalised: wild type 0, dead -1); higher = more abundant; growth selection in yeast, the domain comes from the species named
Settings: Homo sapiens

Abundance fitness: each site, then its substitutions
H8: C -0.032; G -0.1; S 0.135
L10: A -1.02; K -0.993; W -0.892; G -0.983; M -0.676; T -0.888; C -0.608; S -0.916; Q -0.613; F -0.684; H -0.841; P -0.793; E -0.741; N -0.722; V -1.12
P18: N -0.696; K -0.42; T -0.915; L -0.968; A -0.358; F -1.11; W -0.491; Q -0.234; M -0.334; S -0.458; V -0.822; D -0.734; C -0.314; H -0.442; I -0.776; G -0.824; E -0.769
K3: S 0.295; V -0.562; T 0.201; W -0.298; Y -0.672; R -0.118; Q -0.402
P20: G -0.887; W -1.05; Q -0.796; Y -0.559; M -0.817; E -0.969; V -0.613; I -0.466; T -0.927; K -0.797; R -1.02; H -0.693; C -0.7; L -0.411; A -0.816; S -0.724
K24: A -0.009; C -0.462
Q16: C -0.495; L 0.421; V -0.067; M -0.253; Y -0.12; H -0.406; S -0.127; P -0.782; A -0.027; W -0.727; R -0.172; F -0.27
D17: L -0.794; H -0.812; M -0.849; A -0.998; W -0.912; P -0.852; K -0.905; R -0.899; S -0.706; T -0.914; F -0.829; Y -0.97; C -0.749; I -1.01; Q -0.678; V -0.934; E -0.643
R5: M 0.078; T 0.159; E 0.068; D 0.116; P -0.355; V -0.315; A -0.377; Q -0.74; G 0.082; N -0.075; Y -0.221; K -0.263; I -0.172; S 0.191; L -0.175; W -0.558
Y14: I -0.64; E -0.788; R -0.821; S -0.888; D -0.882; F -0.071; C -0.994; T -1.06; M -0.825; K -0.683; Q -0.918; G -0.571; W -0.847; L -0.634; H -0.974; A -0.987; V -0.838; P -0.983
L15: C 0.49; K 0.003; N 0.153; A 0.023; V 0.037; P -0.922; S -0.03; R -0.106; Q -0.025; Y -0.185; E -0.067; G -0.112; F -0.651; I -0.019; D -0.418
N21: M -0.049; V -0.199; F -0.839; T 0.155; P -0.505; C -0.079; W -0.817; E -0.129; Q -0.105; D 0.218; R -0.437; I -0.672; G -0.238; L -0.149; S -0.071; K -0.417; Y -0.725; H 0.337; A -0.222
E12: C -0.262; H -0.455; T -0.33; A -0.427; S -0.362; Q -0.365; M -0.204; D -0.124; I -0.271; R -0.529; L -0.458; Y -0.454; K -0.504; G -0.393; P -1.01; V -0.389; W -0.413; N -0.428
T6: I 0.36; W -0.182; G -0.24; Y -0.45; Q -0.168; R -0.3; A -0.036; K -0.368; H -0.356; L -0.095; S -0.174; E -0.619; M -0.042; F -0.691; V 0.173; N -0.498; C -0.76; D -0.45
L9: W -1.12; E -0.751; T -0.138; G -0.914; S -0.793; R -0.314; N -0.827; P -0.645; H -0.626; Q -0.35; D -0.739; Y -0.283; A -0.387; F -0.213; K -0.258; V -0.328; I 0.145; M -0.238
W13: E -0.067; F -0.251; R -0.608; N 0.24; V -0.181; Y -0.319; L -0.259; A -0.003; I -0.216; Q -0.021; M -0.121; C 0.011; G -0.157; K -0.528; P -0.994; H -0.046; D -0.765
S23: C -0.444; T -0.436; W -0.517; Y -0.726; A 0.012; F -0.272; E 0.186; H -0.523; N -0.175; I -0.579; M -0.257; G -0.328; D 0.038; L -0.276; R -0.813; V -0.35; Q -0.028; K -0.529
R7: S -0.084; V -0.058; G -0.22; C -0.306; M 0.073; F -0.221; P -0.359; Y -0.147; K 0.126; N -0.138; Q 0.02; L 0.051; T 0.01; A 0.033; E 0.236; D 0.167; I 0.073
E4: R -0.361; Y -0.012; G -0.448; F -0.56; L -0.271; N -0.03; S -0.276; P -0.741; D 0.017; W -0.354; H -0.587; K -0.125; M -0.131; T -0.362; V -0.5; I -0.335; Q -0.277; C -0.55
P22: I -0.618; W -0.281; L 0.161; D 0.307; T -0.076; K -0.833; S 0.015; C 0.146; V -0.682; H -0.467; Y -0.424; G 0.087; F -0.241; E 0.104; R -0.634; A -0.109; Q -0.352
Y19: N -0.132; F -0.138; W 0.052; R -0.177; S -0.508; P -0.673; C -0.469; A -0.526; K -0.239; H -0.364; T -0.088; E -0.41; V -0.625; M -0.312; Q -0.414; G -0.867; L -0.488; I -0.366
R11: A -0.379; Y 0.097; S -0.077; W -0.129; K 0.066; Q 0.268; I 0.051; F -0.63; P -0.958; M -0.019; N 0.27; E 0.125; T 0.054; D -0.612; H -0.487; V -0.249; L 0.008; G -0.119
